Biological target: lymphocyte function associated-1 (LFA-1, CD11a/CD18) (UniProt P20701)
Assay: radioligand binding

Sequence of lymphocyte function associated-1 (LFA-1, CD11a/CD18) (P20701 26-1170, chain 1 of 2): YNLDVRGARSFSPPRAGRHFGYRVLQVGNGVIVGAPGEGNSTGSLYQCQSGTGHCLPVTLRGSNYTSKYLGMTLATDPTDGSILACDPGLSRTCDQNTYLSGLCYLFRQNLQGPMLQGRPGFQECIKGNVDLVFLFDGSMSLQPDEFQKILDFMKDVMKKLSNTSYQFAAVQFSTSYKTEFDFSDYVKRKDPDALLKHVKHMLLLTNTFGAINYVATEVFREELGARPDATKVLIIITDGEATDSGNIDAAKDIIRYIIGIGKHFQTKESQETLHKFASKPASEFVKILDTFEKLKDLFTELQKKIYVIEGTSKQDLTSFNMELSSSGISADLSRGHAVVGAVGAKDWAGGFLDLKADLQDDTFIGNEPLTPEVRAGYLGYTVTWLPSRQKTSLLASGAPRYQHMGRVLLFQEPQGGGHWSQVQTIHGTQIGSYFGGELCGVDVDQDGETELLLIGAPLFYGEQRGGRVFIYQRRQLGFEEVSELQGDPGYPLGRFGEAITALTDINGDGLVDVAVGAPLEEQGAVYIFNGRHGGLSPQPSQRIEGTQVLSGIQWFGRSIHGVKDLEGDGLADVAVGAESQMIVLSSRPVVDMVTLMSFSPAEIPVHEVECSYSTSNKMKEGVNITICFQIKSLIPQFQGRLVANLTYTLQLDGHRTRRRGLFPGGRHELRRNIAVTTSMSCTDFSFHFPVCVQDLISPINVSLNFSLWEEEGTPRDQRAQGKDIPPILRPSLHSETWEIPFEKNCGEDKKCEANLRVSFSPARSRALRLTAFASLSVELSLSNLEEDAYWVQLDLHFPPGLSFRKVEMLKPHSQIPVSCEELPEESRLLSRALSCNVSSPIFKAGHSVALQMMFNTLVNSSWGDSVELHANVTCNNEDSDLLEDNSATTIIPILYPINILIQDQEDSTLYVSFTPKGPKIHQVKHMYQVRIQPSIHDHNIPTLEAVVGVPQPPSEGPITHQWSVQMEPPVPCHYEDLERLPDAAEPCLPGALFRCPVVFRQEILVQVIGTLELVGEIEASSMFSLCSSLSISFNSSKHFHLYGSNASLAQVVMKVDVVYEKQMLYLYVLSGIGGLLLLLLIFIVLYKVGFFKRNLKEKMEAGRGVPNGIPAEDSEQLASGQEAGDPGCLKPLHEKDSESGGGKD
Sequence of lymphocyte function associated-1 (LFA-1, CD11a/CD18) (P05107 23-769, chain 2 of 2, further chain): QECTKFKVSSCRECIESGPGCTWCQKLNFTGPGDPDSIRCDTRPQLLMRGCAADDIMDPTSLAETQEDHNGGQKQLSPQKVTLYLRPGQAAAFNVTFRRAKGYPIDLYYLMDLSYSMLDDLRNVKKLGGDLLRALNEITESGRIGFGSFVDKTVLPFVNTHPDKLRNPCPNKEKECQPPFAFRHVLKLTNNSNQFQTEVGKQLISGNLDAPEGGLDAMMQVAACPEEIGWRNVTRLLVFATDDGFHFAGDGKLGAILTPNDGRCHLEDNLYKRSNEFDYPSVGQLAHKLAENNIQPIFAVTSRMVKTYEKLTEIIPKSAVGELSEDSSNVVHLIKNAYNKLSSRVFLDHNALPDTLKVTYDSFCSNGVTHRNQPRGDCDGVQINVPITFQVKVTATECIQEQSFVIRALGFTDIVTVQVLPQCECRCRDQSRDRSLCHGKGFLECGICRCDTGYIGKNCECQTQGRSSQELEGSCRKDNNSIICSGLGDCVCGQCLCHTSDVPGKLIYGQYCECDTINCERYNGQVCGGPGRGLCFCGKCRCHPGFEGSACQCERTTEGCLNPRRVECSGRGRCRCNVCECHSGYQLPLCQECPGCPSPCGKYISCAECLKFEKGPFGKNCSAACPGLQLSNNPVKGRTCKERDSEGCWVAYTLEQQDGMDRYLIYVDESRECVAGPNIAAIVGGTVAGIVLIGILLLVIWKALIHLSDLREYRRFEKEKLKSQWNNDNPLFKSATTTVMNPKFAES

Q: “ICAM-1-HA dimer (from UniProt P05362 28-480) (complex)” was tested. Which KD of the high affinity component did it give?
A: The KD of the high affinity component was 8 nM.

From PMC2192206
